According to the supplement of paper PMC9732359:
± gives the uncertainty stated by the source.

Test: protein stability index of a GFP-peptide fusion (yeast GPS) (PSI 1-4); higher = more stable; sorted into four equal gates, so the index is relative within each strain
Outline: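 Tiled 17-residue peptides from yeast proteins were fused downstream of GFP on a plasmid that also expresses Cherry, and the pooled library was carried in yeast. Mid-log cultures grown in leucine-free medium were sorted into four equal gates by GFP/Cherry fluorescence ratio. Plasmids from each gate were PCR-amplified and Illumina-sequenced, and reads were assigned to strains by barcodes. Each peptide's protein stability index is the sum, over gates, of the gate's read frequency multiplied by its gate number.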

Row | Sequence | protein stability index (doa10∆) | protein stability index (pdr5∆) | protein stability index (san1∆) | protein stability index (ubr1∆)
1 | AISLGLLKGSIDQVNEL [RPN9] | 3.36 ± 0.098 | 3.08 ± 0.066 | 3.16 ± 0.095 | 3.21 ± 0.039
2 | AKCNSLLQLKYFSNKTS [POP5] | 1.84 ± 0.076 | 2.09 ± 0.055 | 1.8 ± 0.1 | 2.2 ± 0.08
3 | AKILSQAPTELELQVAQ [RPS7A] | 2.48 ± 0.048 | 2.75 ± 0.052 | 2.3 ± 0.053 | 2.5 ± 0.046
4 | AKKLPNGNWEVGVHIAD [DIS3] | 1.61 ± 0.16 | 2.25 ± 0.15 | 2.51 ± 0.19 | 3.25 ± 0.16
5 | AKKQNYKLTNDEEGIFS [YCG1] | 3.23 ± 0.098 | 3.45 ± 0.1 | 3.15 ± 0.074 | 3.19 ± 0.075
6 | AKKTIQNPLNKSQNTAL [SIR4] | 3.02 ± 0.058 | 3.1 ± 0.054 | 2.99 ± 0.042 | 3.08 ± 0.045
7 | AKLESLLENSVDKNFDK [MTW1] | 3.39 ± 0.06 | 3.24 ± 0.076 | 3.34 ± 0.048 | 3.32 ± 0.066
8 | AKNRILASKIKQYERLR [RRI1] | 2.48 ± 0.052 | 2.4 ± 0.049 | 2.37 ± 0.051 | 2.58 ± 0.036
9 | AKRNLPHTTLVNECIAQ [CDC53] | 2.37 ± 0.072 | 2.48 ± 0.059 | 2.65 ± 0.067 | 2.68 ± 0.04
10 | ALAFGYVKSLHKQISAE [SIN4] | 1.65 ± 0.056 | 2.21 ± 0.064 | 1.78 ± 0.11 | 2.32 ± 0.043
11 | ALKGPVRDKLDEYQAAV [DPB4] | 3.31 ± 0.072 | 3.29 ± 0.05 | 3.2 ± 0.052 | 3.17 ± 0.064
12 | ALKKSRSKGKQNRPYNH [RPC17] | 3.04 ± 0.093 | 2.46 ± 0.1 | 2.5 ± 0.1 | 2.42 ± 0.091
13 | ALNGIDINTVNTNLMNG [GRR1] | 3.29 ± 0.051 | 3.2 ± 0.052 | 3.08 ± 0.042 | 3.1 ± 0.045
14 | ALNKISKYYPGVIIKVE [SNU114] | 2.04 ± 0.057 | 1.53 ± 0.07 | 1.9 ± 0.085 | 2.33 ± 0.063
15 | ALTVQEVLNRVASRHPS [YDL116W/NUP84] | 3.1 ± 0.086 | 3.15 ± 0.073 | 3.12 ± 0.043 | 3.3 ± 0.047
16 | AMANAPGNNIPYMNHKN [GAL11] | 2.83 ± 0.17 | 3.26 ± 0.19 | 2.6 ± 0.18 | 2.75 ± 0.16
17 | AMIDAGALEEITKDHKV [FAS2] |  | 2.99 ± 0.14 |  | 2.19 ± 0.2
18 | AMKELAEKKIPLVIRRY [RPO26] | 1.28 ± 0.087 | 1.55 ± 0.092 | 1.7 ± 0.13 | 1.73 ± 0.11
19 | AMTAAEHGLHAPAYAWS [CYT1] | 3.16 ± 0.13 | 3.31 ± 0.097 | 2.8 ± 0.13 | 3.27 ± 0.064
20 | ANAMNRMAKLCARFLGN [RPO31] | 3.12 ± 0.21 |  |  | 
21 | ANEDEEEQLDALECRLA [CSN12] |  | 2.65 ± 0.28 |  | 
22 | ANFIFSPASGIVDKYIG [RPT4] | 2.81 ± 0.067 | 2.79 ± 0.097 | 1.93 ± 0.12 | 2.42 ± 0.077
23 | ANKEKKRAEKAARKAEK [RPL24B] | 3.34 ± 0.095 | 3.36 ± 0.082 | 3.58 ± 0.066 | 3.52 ± 0.078
24 | ANLLFKKEKLKQENSTL [RPC82] | 2.15 ± 0.077 | 2.24 ± 0.067 | 1.92 ± 0.12 | 1.93 ± 0.06
25 | ANVFRLENQKDLVIVDE [MTW1] | 3.49 ± 0.12 | 3.36 ± 0.15 | 3.4 ± 0.091 | 3.43 ± 0.074
26 | ANVNASAMPAPYMPYYY [DSN1] | 2.76 ± 0.06 | 2.88 ± 0.077 | 2.79 ± 0.059 | 2.65 ± 0.055
27 | APEKDIWVGEWKEVLAH [RPO31] | 2.47 ± 0.1 | 2.17 ± 0.082 | 2.16 ± 0.12 | 2.51 ± 0.062

Row | Sequence | protein stability index (doa10∆) | protein stability index (pdr5∆) | protein stability index (san1∆) | protein stability index (ubr1∆)
28 | APEQQVQQFAQLPVGFK [UBP6] | 2.92 ± 0.08 | 2.99 ± 0.052 | 3.09 ± 0.059 | 2.99 ± 0.037
29 | APHDSEATLLTNSNNGS [SNF5] | 3.05 ± 0.065 | 2.85 ± 0.061 | 2.91 ± 0.045 | 2.97 ± 0.043
30 | APKGSTDPKELYNNAHV [RPC40] | 2.92 ± 0.14 | 2.96 ± 0.082 | 2.68 ± 0.11 | 3.21 ± 0.062
31 | APMRLATAALEIILKLC [YJL039C/NUP192] | 1.6 ± 0.064 | 2.06 ± 0.043 | 1.31 ± 0.087 | 2.4 ± 0.057
32 | APTRELVQQIQKETQKV [PRP28] | 2.8 ± 0.087 | 3.14 ± 0.078 | 2.95 ± 0.06 | 3.14 ± 0.065
33 | APVETKKKRFEIKKWTA [HRT1] | 3.15 ± 0.094 | 3.48 ± 0.13 | 2.93 ± 0.12 | 3.27 ± 0.09
34 | AQDEEIHKQIVIEMKRC [UBP6] |  |  | 3.26 ± 0.066 | 3.2 ± 0.14
35 | AQQQKRGGFGGRNRGRP [RPS2] | 3.32 ± 0.17 | 3.26 ± 0.13 | 3.31 ± 0.069 | 3.51 ± 0.15
36 | AQSHQRFNAKVSMVKRA [CDC53] | 1.34 ± 0.045 | 2.09 ± 0.061 | 1.56 ± 0.16 | 1.64 ± 0.031
37 | ARAAKIAPRPLDLLRPV [RPL13B] | 2.81 ± 0.07 | 3.04 ± 0.064 | 3.07 ± 0.056 | 2.41 ± 0.043
38 | ARDLATMTYEEVAKRLV [FAS1] | 2.94 ± 0.11 | 3.3 ± 0.082 | 3.12 ± 0.13 | 3.02 ± 0.073
39 | ARDLLDDLEKTLDKKDS [RPN9] | 3.21 ± 0.17 | 2.75 ± 0.11 | 3.15 ± 0.12 | 2.56 ± 0.1
40 | ARILARSERKRTKISRG [ITC1] | 2.56 ± 0.062 | 3.1 ± 0.074 | 3.07 ± 0.078 | 2.06 ± 0.046
41 | ARKSKEEREAAASKVKL [RPC53] | 3.16 ± 0.22 |  |  | 
42 | ASEREELALIEEAYDNP [PRP8] | 3 ± 0.12 | 3.23 ± 0.096 | 3.35 ± 0.065 | 3.5 ± 0.14
43 | ASHNVRRIPKRMRNRAL [POP1] | 2.11 ± 0.16 | 2.34 ± 0.058 |  | 2.07 ± 0.25
44 | ASIESADILCPLLESFI [IRR1] | 3.19 ± 0.14 | 2.48 ± 0.11 |  | 2.85 ± 0.13
45 | ASKLAAYNKKSTISARE [HTB1] | 3.22 ± 0.12 |  |  | 3.21 ± 0.11
46 | ASLNLLQLAPGAHLGRF [RPL4A] | 3.33 ± 0.16 | 3.03 ± 0.15 | 3.18 ± 0.092 | 3.26 ± 0.076
47 | ASRDKTLISWKLTGDDQ [ASC1] | 1.32 ± 0.14 | 1.68 ± 0.13 |  | 1.61 ± 0.094
48 | ASRNVWSFYNGNVLIND [SNU114] | 2.87 ± 0.12 | 3.1 ± 0.082 | 3.5 ± 0.053 | 2.99 ± 0.063
49 | ASSNFPFLNETKPGVYY [RPC82] | 3.09 ± 0.12 | 2.43 ± 0.09 | 2.73 ± 0.091 | 2.99 ± 0.072
50 | ASVVPSASSLVITALKE [RPL12A] | 2.09 ± 0.044 | 2.3 ± 0.051 | 2.12 ± 0.071 | 1.96 ± 0.045
51 | ASYAKIEIKISDPLTVF [SNU114] | 1.21 ± 0.15 | 2.66 ± 0.25 |  | 1.45 ± 0.089
52 | ATAFNKTRGPFHFRAPS [RPL16A] | 2.67 ± 0.12 | 3.07 ± 0.1 | 2.56 ± 0.094 | 2.71 ± 0.072
53 | ATAVAHVKAGKGLIKVN [RPS16A] | 1.66 ± 0.2 | 1.9 ± 0.12 |  | 1.21 ± 0.24
54 | ATIIGIISTAIADSTHV [ECM29] | 1.74 ± 0.073 | 1.65 ± 0.061 | 1.95 ± 0.066 | 1.51 ± 0.04
